This note sets out measurements from publication PMC7374715, “Conservation of Cdc14 phosphatase specificity in plant fungal pathogens: implications for antifungal development” (Scientific Reports, 2020).

Substrate in series [1]: O=[N+]([O-])c1ccc(OP(=O)(O)O)cc1
In kind it is biochemical, Saccharomyces cerevisiae. The settings on record: other: pNPP, 25 mM HEPES pH 7.5, 30 °C, mean of 3 ± SD.
Description: (§1) Activities towards varying concentrations of para-nitrophenyl phosphate (pNPP) were measured in 100 µL assay buffer (25 mM HEPES pH 7.5, 2 mM TCEP, 1 mM EDTA, and 150 mM NaCl) at 30 °C. Enzyme concentrations were chosen to achieve absorbance values within the linear response range while satisfying the steady-state assumption where substrate consumption was < 1%. Reactions were initiated by enzyme addition and stopped with 1 N NaOH. Absorbance at 405 nm was measured on a Synergy H1 microplate reader (BioTek) and converted to product concentration using a para-nitrophenol standard curve. Initial rates were plotted as a function of substrate concentration and fit with the Michealis-Menten equation in GraphPad Prism (Version 8) to determine kcat and KM.

Substrate in series [2]: Cc1cc(=O)oc2c(F)c(OP(=O)(O)O)c(F)cc12
Put plainly: purified protein, by the assay type. The following applies: other: DiFMUP, 0.5 nM enzyme, pH 7.5, 30 °C, mean of 3 ± SD.
Description: All enzyme concentrations were 0.5 nM, except for PsCdc14 and VHR, which were assayed at 2 and 5 nM, respectively. Fluorescence intensity was measured continuously on a Synergy H1 microplate reader (BioTek) with excitation and emission wavelengths set at 358 and 450 nm, respectively. Fluorescence intensity was converted to product concentration using a 6,8-difluoro-4-methylumbelliferone standard curve. Background fluorescence was subtracted from each reaction and initial rates were calculated from the slope of the linear portion of the product concentration versus time plots. kcat and KM were calculated as described above.

Substrate in series [3]: O=[N+]([O-])c1ccc(OP(=O)(O)O)cc1
Description: as §1
It counts as biochemical, Botrytis cinerea. The settings on record: other: pNPP, 25 mM HEPES pH 7.5, 30 °C, mean of 3 ± SD.

Like-named read-outs stand apart in the source and are kept apart here.

B1: ScCdc14 (Saccharomyces cerevisiae S288C) (protein)
chain: MRRSVYLDNTIEFLRGRVYLGAYDYTPEDTDELVFFTVEDAIFYNSFHLDFGPMNIGHLYRFAVIFHEILNDPENANKAVVFYSSASTRQRANAACMLCCYMILVQAWTPHQVLQPLAQVDPPFMPFRDAGYSNADFEITIQDVVYGVWRAKEKGLIDLHSFNLESYEKYEHVEFGDFNVLTPDFIAFASPQEDHPKGYLATKSSHLNQPFKSVLNFFANNNVQLVVRLNSHLYNKKHFEDIGIQHLDLIFEDGTCPDLSIVKNFVGAAETIIKRGGKIAVHCKAGLGRTGCLIGAHLIYTYGFTANECIGFLRFIRPGMVVGPQQHWLYLHQNDFREWKYTTRISLKPSEAIGGLYPLISLEEYRLQKKKLKDDKRVAQNNIEGELRDLTMTPPSNGHGALSARNSSQPSTANNGSNSFKSSAVPQTSPGQPRKGQNGSNTIEDIN
notes: made in house; host or cells: E. coli BL21 AI
In general, Km refers to the concentration of substrate that gives half-maximal velocity. For orientation: kcat means the maximal rate divided by the concentration of active sites. Usually kcat/Km stands for the turnover number divided by the Michaelis constant. Take B1: in series [1], the Km amounted to 23 ± 1 mM, the kcat was determined as 1.12 ± 0.08 s⁻¹ and the kcat/Km is 50 ± 4 M⁻¹ s⁻¹. For the same protein, in series [2], the Km amounted to 0.011 ± 0.003 mM, the kcat stood at 3 ± 0.4 s⁻¹ and the kcat/Km amounted to 253000 ± 34000 M⁻¹ s⁻¹.

B2: BcCdc14 (Botrytis cinerea B05.10) (protein)
chain: MHPMDYNSMLEWATLLPNDAHPGASAKKGPKDPREEDRPFHWLTYTDRLYLASYTTPPSPDTLFPYPEQQSSRRSPTKRSARAADGPSVVSDKREPPHYFSVDDTLLYNAFHHDFGPLHIGHLYRFAVQFHDILGAPENKNKPVVFWSKADARSRANAACLLATYMVLIQSWAPHLALAPIAQADPPLMPFRDAGYSQADYGITVQDVVYGVWRAKEQGFCALPQFDLEEYERYERVDQGDFNWLTPDFLAFASPQHHPVQPILPSSPLYASLPTTLEDVDTHPTLPTPFKNVLKHFTSRNIGLVVRLNSELYSPSFFTALGIEHLDMIFDDGTCPPLSVVRKFITLAHEMITVQKRGIAVHCKAGLGRTGCLIGAYLIYRYGFTANEIIAYMRFMRPGMVVGPQQHWLHLNQGTFREWWIEEQFEIRMKEKLANMAPVTPRKGHYTSKSQVVTPPNGNQRTPLGEVDNERSHSIGAQEDYLPAPTPGQPRK
In the case of B2, in series [3], the Michaelis constant (Km) is 16 ± 2 mM, the kcat was found to be 0.38 ± 0.003 s⁻¹ and the kcat/Km came out at 24 ± 2 M⁻¹ s⁻¹. In series [2], the Km is 0.034 ± 0.007 mM, the kcat was 1 ± 0.2 s⁻¹ and the kcat/Km was 43100 ± 11000 M⁻¹ s⁻¹.
